Results taken from publication PMC10411902 (Science Advances, 2023).

Target: T1, BRCA1-associated protein 1 (BAP1), full-length human (residues 1 to 729) (human, UniProt Q92560 1-729)
T1 sequence: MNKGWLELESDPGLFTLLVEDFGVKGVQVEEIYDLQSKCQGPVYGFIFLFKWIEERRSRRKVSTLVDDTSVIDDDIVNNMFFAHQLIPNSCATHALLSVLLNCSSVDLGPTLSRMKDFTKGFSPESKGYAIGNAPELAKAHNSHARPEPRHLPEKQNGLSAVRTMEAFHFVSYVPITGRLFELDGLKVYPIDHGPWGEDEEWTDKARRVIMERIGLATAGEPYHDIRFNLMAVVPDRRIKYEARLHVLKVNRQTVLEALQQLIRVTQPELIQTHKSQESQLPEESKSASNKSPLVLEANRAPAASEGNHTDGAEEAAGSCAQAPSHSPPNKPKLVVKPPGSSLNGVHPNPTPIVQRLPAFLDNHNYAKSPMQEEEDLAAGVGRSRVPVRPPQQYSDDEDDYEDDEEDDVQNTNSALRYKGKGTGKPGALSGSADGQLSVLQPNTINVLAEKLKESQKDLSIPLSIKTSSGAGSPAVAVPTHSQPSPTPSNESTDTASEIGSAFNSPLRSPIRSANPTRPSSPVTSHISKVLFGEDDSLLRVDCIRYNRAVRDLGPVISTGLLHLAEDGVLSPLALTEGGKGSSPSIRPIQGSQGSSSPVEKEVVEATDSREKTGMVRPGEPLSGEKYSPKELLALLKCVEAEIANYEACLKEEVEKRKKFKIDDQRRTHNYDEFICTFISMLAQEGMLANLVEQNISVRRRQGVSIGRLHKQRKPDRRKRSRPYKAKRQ
Experiment: cryo-EM structure

binding result: binds
B1: Deubiquitinase adaptor domain (DEUBAD) of additional sex comb-like 1 (ASXL1), residues 237 to 390 (domain or fragment)
chain: PATGQMKRNRGEEIDFETPGSILVNTNLRALINSRTFHALPSHFQQQLLFLLPEVDRQVGTDGLLRLSSSALNNEFFTHAAQSWRERLADGEFTHEMQVRIRQEMEKEKKVEQWKEKFFEDYYGQKLGLTKEESLQQNVGQEEAEIKSGLCVPG
